# From patent US20070270364
# B1: histone acetyltransferase (HAT) region of p300 (protein)
# chain: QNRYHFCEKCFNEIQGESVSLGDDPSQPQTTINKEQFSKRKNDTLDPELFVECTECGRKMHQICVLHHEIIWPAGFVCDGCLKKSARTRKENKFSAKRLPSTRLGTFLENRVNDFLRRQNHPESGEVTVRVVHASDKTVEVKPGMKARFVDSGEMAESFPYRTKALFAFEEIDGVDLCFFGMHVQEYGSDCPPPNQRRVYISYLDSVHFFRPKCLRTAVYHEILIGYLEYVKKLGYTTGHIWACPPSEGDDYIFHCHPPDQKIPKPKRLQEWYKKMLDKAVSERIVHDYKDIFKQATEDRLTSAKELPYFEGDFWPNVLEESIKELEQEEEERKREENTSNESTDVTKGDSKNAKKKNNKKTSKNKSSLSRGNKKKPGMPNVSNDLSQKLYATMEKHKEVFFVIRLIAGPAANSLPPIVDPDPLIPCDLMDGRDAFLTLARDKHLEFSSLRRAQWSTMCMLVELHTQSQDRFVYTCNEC
# Molecular target: GST-p68 fusion polypeptides
protein,measurement,value
B1,in vitro 14C-acetylation of GST-p68 fusion polypeptides (autoradiogram),p300 indeed acetylated p68 polypeptides exclusively within its N-terminal 80 amino acids
